To fix the notation:
B1: Gamma-crystallin S (Homo sapiens), P22914 (parent)
chain: MSKTGTKITFYEDKNFQGRRYDCDCDCADFHTYLSRCNSIKVEGGTWAVYERPNFAGYMYILPQGEYPEYQRWMGLNDRLSSCRAVHLPSGGQYKIQIFEKGDFSGQMYETTEDCPSIMEQFHMREIHSCKVLEGVWIFYELPNYRGRQYLLDKKEYRKPIDWGAASPAVQSFRRIVE
partner: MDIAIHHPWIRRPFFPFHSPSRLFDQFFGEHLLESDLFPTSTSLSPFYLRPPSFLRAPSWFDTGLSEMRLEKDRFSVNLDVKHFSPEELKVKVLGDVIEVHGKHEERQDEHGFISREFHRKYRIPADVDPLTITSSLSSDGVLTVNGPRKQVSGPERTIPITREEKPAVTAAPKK

Variants of B1 are the subject of the test. Particulars: with cryab_human CRYAB.
In the case of G18V, the “effect of a mutation on the interaction” value is given as “increasing interaction strength”.

The record behind these values is IntAct's records for PubMed 24183572.
